In article PMC9733406 (ACS nano, 2022):
Residues, ends and D or L forms follow the SMILES beside them.

What was measured:
[1] = target: MMP-2 targeting peptide (FITC-AA-…); assay: MST
bovine serum albumin = assay: MicroScale Thermophoresis; assay type: binding; conditions: MST, FITC-labelled peptide

Row | Kd [1] [µM] | nonspecific binding to bovine serum albumin (bovine serum albumin) | Compound
1 | 0.0828 |  | recombinant human MMP-2 (from UniProt P08253 30-660) (enzyme)
2 |  | does not bind nonspecifically | CC[C@H](C)[C@H](NC(=O)[C@H](CC(=O)O)NC(=O)[C@H](CC(C)C)NC(=O)[C@H](Cc1ccccc1)NC(=O)[C@H](CCC(=O)O)NC(=O)[C@H](CCC(N)=O)NC(=O)[C@H](CCCCN)NC(=O)[C@@H]1CCCN1C(=O)[C@H](C)NC(=O)[C@H](C)NC(=O)CNC(=O)[C@H](CCCNC(=N)N)NC(=O)[C@H](C)NC(=O)[C@H](C)NC(=S)Nc1ccc2c(c1)C(=O)OC21c2ccc(O)cc2Oc2cc(O)ccc21)C(=O)N[C@@H](CCC(=O)O)C(N)=O [MMP-2 targeting peptide] (HELM PEPTIDE1{[O=C1OC2(c3ccc(O)cc3Oc3cc(O)ccc32)c2ccc(NC(=S)[*:2])cc21].A.A.R.G.A.A.P.K.Q.E.F.L.D.I.E.[am]}$$$$V2.0)
